This note sets out measurements from the DeepSol protein solubility set.

The data set in a line: soluble on expression in E. coli; label from the status in PepcDB or PDB records.
“MGSDKIHHHHHHMHAVSHLASKDAQSNASPQVALIAEGGGQRGIFTAGVLDAWLDGGFDPFDLFIGTSAGSQNLSSFLARQKGYAKRLIRGLSRHKRFYRLGRGLVGGNVVDLDWYFEQTRQGMFKLDLNAATASLGHRQLLITTTNASDRKGYFLSPSSKSQWRELLKASSALPFLYKQGVKLTPWLNDNACNSDKACNNGAANHGGSHHSAALSEAIDSDFYLDGGLAAPLPVREAYRRGARKIVVIRTVSEDFQAQSAWVHKLKSWICVSGFCPKTIDYLVQHEQAYQDELDFIANPPEDVEIVQIFAAENLQSKLLGSTDADLRHDYHAGMNAGKQFLTQDPMALTQMNVHFQTQVQTNAHTQTHIQALSQIKPFSALSA”: the “soluble on expression in E. coli” value is recorded as “not soluble”. To “MYKAFYGLSDNPFSIAPNPHYLFLSDRHREALAHLTYGLGETGGFVLLTGEVGTGKTTVSRCLLGQLPDNTDTAFILNPSLTELELLATLCDELKISYGENPTLKQLTDHLSRFLLANHEKGRKTVLIIDEAQHLRAEVLEQLRLLTNLETDTKKLLQVILIGQPELQLLLKRQELRQLAQRITARYHLLPLNEDEITLYVLHRLQVAGRFEPLFTRKAIKVLHKYSGGIPRLINLLCERALMAGYAQSKVPIDHHMVRQAAAEVLGEEKPSQNKFLWPSAIAAALVLTFGVSYWLFTDHAVVATVANENVTQPKQTVIAENAVQQSQTALTNTAPAITLAQTPAAPDPNLRVLQEAIKQSRQIDTAFAGLFNVWGKVPFKGLTACQSAFEQGLSCYQQQGNWMSLTRLNYPAVVYLVDDNQQDFYGAVIAVDGEQLLMQLGEQQLWVERTWFNQHFSGTFEILWQAPNLPMMEISQKSSPGQLQWLENALAHVAKRPSRRVSQFDLKLENDLKAFQSQHGLKADGIAGNQTLVRLNLYLSDQGPRLTDNGAQS” belongs “not soluble”.

Turning to “MGSDKIHHHHHHMTVSKTKAKLVDVARQLFAKMGVENTTMNDIALASKKGRRTLYTYFKSKDEIYLAVVESELDILSDMMKRVADKDISPDKKIIEMIYTRLDAVKEVVYRNGTLRANFFRDIWRVEKVRKRFDAKEMQLFKSVLKEGQDKGVFHVDDVEMTAALVHYCVKGIEVPYIRGHIGANLDMETRKRYVANIVFGALHRTEINQ”, the “soluble on expression in E. coli” value is given as “not soluble”.

Consider “LRVRKAIIPAAGLGTRFLPATKAQPKEMLPIVDKPTIQYIVEEAIKSGIEDIIIISGRSKRAIEDHFDKSYELEQELEKKGNHDLLKLVQDISNLANIHYIRQKEAKGLGHAIYCAKSFIGNEPFAVLLGDDIVDSEVPCIKQLMDVYDKYRTTVLGVQKVPEDQVSKYGIVGGEIVSDRVYKVKDLVEKPDTASAPSNIAILGRYIITPRIFDYLENAKPGKGGEIQLTDALRELMGEEEMYAYDFIGKRYDVGNKLGFLQATVEFALARDDLKEEFEAYLKEIICKL”, for which the “soluble on expression in E. coli” value is reported as “soluble”. The same measure for “MGSDKIHHHHHHMRILYINHYAGSPRHGMEFRPYYLAREWVKAGHEVNMLAADVSHLRQTHPQVDGKYRDEDIDGIRYTWCKTRPYSGNGVGRVLNIFSFLAKVMGLSRRYLKEWQPDVVIASSTYPLDTVPAAWIAGKTGARLVYEVHDLWPLTPVEVGGMSPKHPFIRLLQWAEDFGYKRADTVVSMLPCARDYMMAHGMAAEKYAVIPNGVDVSEWQGETLPLSAEHRMRLAELKSHGRFIVGYAGGHGLANALDYLLEAAALMRDAPVTFVLVGDGPDKQALVSRAAELKLDNVMFLPSIAKRSVPAFLAECDALYIGWRKLPIYRFGINPNKLFDYMMAGKPVIHSVEAGNDMVKDAGAGLSIGVEDPAVIADAVKRMAVLPLAERETMGAAGKAYVLANHDYAVLARRFLAAVKL”: “not soluble”; for “MNYAIQSETRHYPYLEVSARKRALKHSLIRVEQGLLLFRLGKHEYAVEKGQTLWIPFDCLCGLTFFPDTHITRVDFSLRLNVRLPHNAGFIKSSELALAVLHRLQNCERHHPTFTHLTQLLMLELTTCDPKLKMSPLTQAITEWQPQAHASVSKEQHVVLLVREALKRSQSGAQTHSIIEELFSGNAEHYHQLCTLVLGRTL”: “not soluble”. Consider “MGSDKIHHHHHHMGKLVVQGGAVLEGEVEISGSKNAALPIMAAAILCDEEVILKNVPRLQDVFVMIDILRSIGFRVEFEENELKIKRENDISQEVPYELVRKMRASFNVLGPIAVRTGRAKVALPGGCSIGVRPVDFHLEGLKKMGFSIKVEHGFVEACFERRIDYVTITLPFPSVGATEHLMTTAALLKGARVVIENAAMEPEIVDLQNFINRMGGHIEGAGTSRIVIEGVEKMQGVEYSIIPDRIEAGTYLVAIAASRGKGLVKNVNPDHLTNFFEKLEETGAKLKVLGNEVEIEMRERPKAVDVTTNPYPGFPTDLQPQMMAYLSTASGVSVITENVFKTRFLHVDELKRMGADIEVSGNVAIVKGVEKLSGAPVEGTDLRATAALLIAGIIADGVTEISNVEHIFRGYEDVIDKFSELGAKIEYVEKEN”, for which the “soluble on expression in E. coli” value is “not soluble”. Take “MSTGSTKLRNVDAVIKKGKPFSILLLGTDTGALGRGKDFSARTDTMIVATINPKKESMTLTSIPRDTQVMIDGQSQKINAAYTIGGASGAVKSVEKLLDVPIDFYVLLNMGGLKQIINAMGGVTVTPKLTFKYGNANVKKGVKIKLNGAAALDYSRMRYDDPQGDYGRQKRQQQVIMAMVSQSNSLGSIANIEKITKKLAKNMRTDLTWNDMVALDTKYKNASHHAKSYTVQGTDATIDGLSYQVASSSERYKNSKRIRKALGLSNSNLTESVFSETASITTGSSSSSSSSSSTTTSSDTTTYGTSTTQDTTTQDQTTTQDQTTTNQYLEHHHHHH”: the “soluble on expression in E. coli” value is listed as “soluble”. “MGSDKIHHHHHHMELRHLRHFIVLARLKSFSKAANELHLAQPSLSRSIQKMEERLGASLLARDEKHFALTEYGRLVLAQGELIVSQLEYLESEIKTKQGLEKAKLVIGASPIPSNSIIGPAVGRFIRDNPDISLELKVESWSRLYKLLLKGELDMFIAETNATLLDQRDNVITQCLPQSQAIFCCRPHHPLTRLKTVYLPSLRDYPVGMPSAMPQLLRQRFEDLFEEDRHDFVGLVKYAQFQPIKSAIKECDMVVITPDISVREELASGELVALDVVGVPNIKASFSVVSMKNRRLSHSAEQFVDSLLTHSSAKAVGF”: the “soluble on expression in E. coli” value was “not soluble”. “MSKVKIELFTSPMCPHCPAAKRVVEEVANEMPDAVEVEYINVMENPQKAMEYGIMAVPTIVINGDVEFIGAPTKEALVEAIKKRL”: the “soluble on expression in E. coli” value is recorded as “soluble”. Take “MGSDKIHHHHHHMFQNKKHRIALISIDGDPAVEIGQEEAGGQNVYVRQVGYALAQQGWQVDMFTRRSNSEQSAIAQHGPNCRTIRLKAGPAEFIGRDNLFDHLPEFIEEFQKFQQRQGFHYSLIHTNYWLSSWVGMELKKQQSLIQVHTYHSLGAVKYRSIGDVPVIAAQRLAVEKACLETIDCVVATSPQEQKHMRVLVSSKGNIEMIPCGTDTDKFGGIQRTAAREKLGIAPDAKIVLYVGRFDRRKGIETLVRAVAKSSLRGEANLQLVIGGGSRPGQSDAIERDRIASIVTELGLENCTTFAGRLDETVLPFYYAAADVCVVPSHYEPFGLVAIEAMASQTPVVASDVGGLQFTVVPEVTGLLAPPKDEVAFAAAIDRILINPTWRDQLGEAARQRTEIAFSWYSVGFRLTQLYTRLLAQTASNTRPRIAA”: the “soluble on expression in E. coli” value was “not soluble”. For “MSLAYQALYRVFRPQSFQDVVGQEHVTKTLKNAIVQNKTSHAYLFSGPRGTGKTSAAKIFAKAINCEHGHDGEPCNECEICKGTTDGSIPDVLEIDAASNNGVEEIRDIREKVKYAPTVAKYKVYIIDEVHMLSTGAFNALLKTLEEPPKHVIFILATTEPHKLPLTIISRVQRFDFKRITTQDIIGRLKFILEEEKIPYDEKALMIVARAAEGGMRDALSLLDQVISYGSEEVTVEDALEITGSVAQNLLTKLVSAAFDGDAAEAISTLTALLAEGKDPVRLVEDLLVFFRDVLLYQKAPNLEETLERALIDDDFVALAKRADSLKVYEFVKILNTAQQQMRFSNHPGIYVEVALIQLTQAGEGHHHHHH”, the “soluble on expression in E. coli” value is “soluble”.

Consider “MTLTVSPTAARTPAEEKARFEGNKLAKRLARETTRAIADYNMIEAGDKVMVCLSGGKDSYALLDILLSLQKRAPFAFEIIAVNLDQKQPGFPPEILPGYLRALGVPFHIETQDTYSIVTRVIPEGKTMCSLCSRLRRGILYRVASELGATKIALGHHRDDILGTFFLNLFYGGKAKGMPPKLVSDDGRHTVIRPLAYVPESDLIAYAQFKQFPIIPCNLCGSQENLKRKEVGRMIQEWDRKHPGRSWNVFNALSRVVPSHLMDRDLFDFVGLKPTGVADAGGDTAFDQIDPEPDTAGPGCASDAPAGQADGMAEQRVVFR”, for which the “soluble on expression in E. coli” value is “not soluble”. Turning to “MEGNQAGSSLDSLIASFNKRIGELQELVIARNMYPASTIPDLSAIDTALSSMELQVQSIKDRLREETEAIPKAKKLIEASLKQQGKLQKMSIYAPSHFPDKATMLNSDLNRCLLQENAKQYEQHSTLSSLKFDEEAAVLPKEKKGRGSPPLWYITVEELNSLSSYMRGRLTLEKVNAAINDMASYAEANAHLIAASKQKLAENLWEKALKLRDIVTEQAVKGKHFFLETDMKGPSLKLDNTGKAILTVLRHLGRISETRIGQNRVIILMKPH”, the “soluble on expression in E. coli” value is “soluble”. On to “MSITHQPANLTLAQIQQMIGGVMLLSQHSPLHRRYVVAEWLQRILPAFELNQFCYYEDEHGRPIAFCNWAFVSEQIRDELLSGVREISPSDWRSGQQIYIPEMIAPFGHGREVVNDLRRRVFLPWQGQKVCTVRGKVDAQNDRCIRKVQWFSI”, for which the “soluble on expression in E. coli” value is “not soluble”. Consider “MDAPLAEQDLKALFLRHARQLQSYLLRKTRDPHLAADLAQESFLRLAEQRHKEPIEHVDAYLYRTAHNLTIDHYRQERRRRTETQPNDDLAGFVADQPGPEESAVDADALARLREIVAELPPRTREIFRLNRLEGLTHAEVARRLEISDSSVQKHLARTLAHVMQALEDSR”, for which the “soluble on expression in E. coli” value is reported as “not soluble”.

As to “MLSTLSKSARLNQTRFIRLSHSAAAAKDAKPKKVAAVDSPSFVMNLFRGKAVTDQVFPYPLNMTDEQKETLGMVMSPLEKMLVEVNDVVKNDETSDIPRAVLDQFAELGTFGVLVPPELEGSGFNNSQMARVAEIVGAYDLGFGVVMGAHQSIGYKGILLEGTDAQKQKYLPDLATGRKFAAFALTEPTTGSDASSVRTRAELSADGKHYVLNGGKIWISNGGFADVFTVFAQTPVKQADGSTKDKMSAFIVERAFGGVTSGPQEKKMGIKGSNTTEVHFDNLKIPVENLLGKEGEGFKVAMNILNNGRFGIPAACTGAMKHCIQKTVDHITTRVQFGKKLQEFGNIQEKLVEMISKLYATESIVYMLSSNMDRGIKEYQLEAAIGKVLASENAWLVCDDAIQVHGGMGFMRETGLERVLRDLRIFRIFEGANDVLRLFIALTGAQHAGKHLAEQASGVGGLIGLAVSRVTGGNTGSNFGQVVDASLQDSAKVLDQQIALFGQTVQGLLMKHKKGIIDRQYEMHRVADAAINIYSSAAVLSRATYAIKNKSSSADFERKVATYYVDKAMKSSNRFLKDAGSGVENASKVATIESLAKEVCGNGGLTLQHPVEL”, the “soluble on expression in E. coli” value is on record as “not soluble”. Consider “MKYLGLCTDLYELTMAQSYLYEGKTGTAVFSLFVRKLPEKRNFLISAGLETLVERIKNFKFGDEEIKYLKSLGIFKDDFLDYLKDFEFSGNVYAIPEGRIVFQNEPLVQVEAPIPEAQLLETLVINTIQFETMIASKAVRSYLVAKGKKLVDFGFRRAHGLEAGILAARASYIAGFDGTSNVEAGREFGIPVVGTMAHSYVMIFDKEEDAFRAFAKLYPKNAIFLIDTYDTIEAAKKVVDLAKEGVPVVGVRIDSGDIVKLSKEVRKILDENGLKNVRIIVSGGVDEYKIKEWFDRGAPIDAFGVGTKFITSADAPYFDIAYKLVEYEGKPKYKLSPGKKTFPYKRQVYRYYENGKMKYDETAKWESKREGEPLVELVMKNGKLIKELPSLKEIREVVMSELEKLPENYKDITKHYEYEVKILDWE”, for which the “soluble on expression in E. coli” value was “soluble”.
